From the domain aggregation screens of Martell et al. (2025)

Assay: soluble fraction after stress (log2 fold change); higher = more stays soluble; pooled small domains, quantitative proteomics
Details: stress: 75 degC
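Note: 20 min heating vs room temperature control held 20 min.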

Row | Sequence | soluble fraction (log2)
1 | HMHQALLEQSAEHAQQVKAYELLLTAERALDEENTEAFLSAMKSLKPLAENLDAKGKALYQELLPFVTEA | 0.485
2 | HMHQAVTVTKPARLFTGPDGKGVVRSLDVGMMLYPTGEKQGMMWEVEDELGNKGWVSSTLLELS | 0.0637
3 | HMHSEEAALLHRYIDSLEEPQHTVVVMRDIGGYSFEEIASVVQLKEAHIWMILSRARRKLRELYIKTMDHH | 0.0533
4 | HMHSFFGDNIKKLRTAKKMSQEQLADIFGITKAGISYWETGRSEPNFATVQKLADFFGVTTSDLLGEA | -0.43
5 | HMHSFGLHVRNLRKKSNLTLSQLSNASGLSLSAISKIENNQISPSFINLIRLAEGLKMHIADLVTVK | -2.2
6 | HMHSGFHSAILDVDRAVKEGKTLYEALNKYPYIFDETFRSLVRAGEASGELPSILSKLALYLEEQSK | -2.04
7 | HMHSLLDDIPNVGEKRKRILLTHFQSLEEIKAATVEELERLPQINRKAAESIYTFFHSQPIR | -0.735
8 | HMHSRLEDIPGIGPRRRAMLLRHFGGLAELKAAGVEEIARVEGINMALAQRLWRALHGVPDPT | -0.641
9 | HMHSVIALTIPADYAGLRLDQALAKLLPNWSRSRLQTWIAENRVILDGQITTIKQKVWGNELIQISPQD | -1.67
10 | HMHTDQVLVMTRAVGQGEIVRNTDVGLTSVAVDRAVTTIPASQLDEIVGRHALVDLSAGQLLGSHSVGA | 0.109
11 | HMHTNNALWAIADDMRARKDDGEFDTYREGYKWAANNIVKEGIHITAIKLEKAYHKAKSEGKV | -0.139
12 | HMHVSIAENIRRIRTQHDMTQEEFGKVAAVSAMAVSQWENGRAVPRMGAVQRIADYFNISKGEVID | -0.699
13 | HMHWDIAQADAKQEVMDSSDDKEAIERIQANMFKDPKDHDQEYANKILNDMIDEIKEKGLEAMQHKFAQE | -0.443
14 | HMHYELTPDAEKQLSALGLTAELVERILEEANDRRPIPGTNRTVYSLHGYSVEFSNTNHKIVSVRKG | -0.882
15 | HMIAAPFVVKDIRVDGVQPATGEAIISSLPVKVGQTATDADVSNVVRQLFSLNRFQNVQATREGNTLVIKV | -0.0493
16 | HMIAGHLQIKNDYYYMVLSYTDSDGKRKQPWIPTGLPMKGNKKRAEKMLIETRQTYVPPVSSG | -3.41
17 | HMIAIGDDARLDDAARFFRIAEDSYAAGDYRKSKENYIEARKLYAELGDHEKVNLINSKISAIDSIT | 0.0977
18 | HMIAVIKPSATAEQKAGLVDWIRGQGIDVHISEGHDYTVLGLIGDTSKIDMDLIASLDIVDSVKRVA | -0.338
19 | HMIDAHTTLLAKRLESKGFLALTDKSSAEEIYEEFGISKKAFKKALGALYKERLVRIGEDGVVWM | -1.67
20 | HMIDDPTAVILRLVSEKQVIRRDDVVKALSVTPQKAYRLLKTMTTGGLLTRSGARRTTVYGLPDARER | 0.223
21 | HMIDEKVQAADKSIEIGNLSPLKGLVTDDEMHELEKLFEKVMALKDFEVNDVGAGRKYIEAYVSFFKFAEG | -0.418
22 | HMIDELNVGDIRFYLNRYGKEIQIEIIRIGDDGSVYARTMADNALFRVPEARLKNIGEKVPAEEVQRG | -1.42
23 | HMIDFTHEDIERLWNAIVHYVPERQKSDMAIDFIKSLEDIGVEHDEIKASAEYDPKLEEAINTVY | -0.424
24 | HMIDIDNLEKAAILLLSMGTEAAAKVMQKLSRDEVQRLISKMASLSGVSSIEAKWTLQQFFNQYREQSG | -0.786
25 | HMIDLSELINKTGSAYTNLRPSGTAVIGDDRVDVVTEGTFVEKDRPVKVVAVEGQRVVVREVE | 0.209
26 | HMIDMQIDTARFGTLGVDDDKIITFPKGLPGFEDERRFFLMDHSGSSKIKWLHSADNPGLALV | -0.0491

Row | Sequence | soluble fraction (log2)
27 | HMIDVGSKIRSLRKSKNISISTLAKNSDLSTGLISQIERNMVVPSIVAMWKISKALDINIGYFFE | -3.13
28 | HMIEDMQQYIKEIRQMVSGRLDMTRNLEDEEIRDTIAELVAEESRKQYMTLTEKREVIEGVFNSMR | -0.0831
29 | HMIEEIAVPEILGMQEEEAKAKIEGLGLVFNVTDRVKSNEYEKGEVMYQSVGPDDTTVKSGYPINVTISEG | 0.196
30 | HMIEEIPYSQFMSMLEEGKIDKAEIYQDSIIFSTKPDEQGKAGYYSIAYMKDNVLADRLYDAGVEFTPII | 0.293
31 | HMIEGEQVRLLRLLERQEGGMLPLGDKSPASDILLLTGMSKKTFKMAVGALYKAQMITMTPTSIKLVK | -3.18
32 | HMIEGETPEQTMERVSKDPEIVQILQDPVMQGILAQARENPAALQDHMKNPEVYKKINMLIAAGVIRT | 0.278
33 | HMIEGSSDWKPNMILDDGGDLTKIIHEEYQDLLDDIRGLSEETTTGVLRLYEMEKENSLAVPAINVND | 0.171
34 | HMIEKGSDALEKELRKNNLSINEFLTNKNIDIILDELKLKDIDDLYVNIALGKYTPNQIIKIVNK | -0.0502
35 | HMIELEGVISSVLAGTMFKVKLRGNGHEVLAHISGKMRKKFIRLVIGDAVKIEMSPYDMDKARIVYRI | -0.318
36 | HMIELTTDYKKRVVEALVSARENYSGSDSDFARKWSIDKTVYSRLKKGYQEGLLSVGKYIELGMELNVSSR | -1.87
37 | HMIENITIELNKKALALDFELNKDLPEGVLETIPTLVSLMVRFDPLTVSYHFLRDYIDALLESNLNVDL | -0.0886
38 | HMIENMQEYVRHIRAAVSDRLDLTREVEDDEIREVISQIVAEESRQNYLSLGERQTVIETVFNSMR | -0.339
39 | HMIERLVEFVHTLRHSGVRVSMAEAMDAAEALRHTPITERQIFKTALQSVLVKEHQDIPAFDAAFERFFL | -3.04
40 | HMIESLKGILHKKDPTIAIIDVGGVRLSVNITLSTYEKLEEINSSIELLTYFNVREDAMELYG | -0.468
41 | HMIETIIGAEGKVLETIDNFNQKGVVALAGKEWTARSADASIIPEGAKVSVVEISGVKLIVTQN | 0.251
42 | HMIETLGDATFKRLKAMILDGTLEPGTRLSEKKFADHLGVSRTPVREAIGQLVSEGLAKRSAGSAPVVSS | -0.0859
43 | HMIFSIIPGQIRLTKMEIADGYLVLYGFTPSKEIYNLHLNPALKSIFTSSETSFIPVSGGLKFMSTNKL | -2.35
44 | HMIGAKVLVNGQLHRDSYGEGPGQTESNATRLVNYINMKGSHPYHVTTLDGGWRGWVTADSVQV | 0.139
45 | HMIGDNNELFQKAQLTPREKEVALLLLQGETNSDIAKILYVGLSTVKKHISSIFEKTKVKSRTEFISKVR | -1.6
46 | HMIGDYALILNIKGGSDWYLGNRVELLFTDGTSKIVTTDKDYNAKKDMVPTQIVTYKVNDNGEYSLKALPT | -2.13
47 | HMIGEKLKEIREKTGMNKKEFAQYLGLKYTTYNNYETEAREPASDFLILISTKFDVSIDYLLGLQ | -1.15
48 | HMIGIEALAGEIDRVRQVLTGGGGLSDVQLFSQLKALNEIKAALGASPDPRAPELVQRVDQLLEAAFRS | 0.395
49 | HMIGIGSDVPNKLKPAIYSFGLVAVGEKSVIPDGVQIGKNTAVSGVTSKEDYPDGVLESGETLIKA | 0.186
50 | HMIGKLTSSKLAAIHKMKTNELLAHFTEKGFLNINDAGKYILTQQGKDVGAEFKTSQYGGYFLWPENIE | -0.666
51 | HMIGTPLSEWQKDAPEEITRDQIAELVILKFVTVEQLALASDAQLQRIGMGGVGLRERAKLYLNRK | -1.87
52 | HMIGVNMEKSTVEKFANELNLPIDLLLKQLESAGIKKTSGAEELLEADKSALLNYLQIEHGA | 0.725

Row | Sequence | soluble fraction (log2)
53 | HMIGVQEFAMTYALTRRETEITQLIIQGKSNAMIAGELFISETTVKKHVSNIFEKTGVSRREELMVRVQAE | -1.98
54 | HMIHANGLTDRQEMILEFIRSYISENNYPPSVREIGKGVGLASSASVHNNMKKLASLGFLNWDTD | -1.93
55 | HMIHFDHPERSILDTMLYEKKGMTAQSARNRLAAYQFQGEDVFKPVSVLSGGELSRITLAIKNAMADK | -0.36
56 | HMIHQPNNETTRNLIAGVVKKSLSVWETRVQVDGVDVTTAKDNLAEVHINIRYRLRHNQTPASLGLRLNLG | -0.0232
57 | HMIHSEDMDDHILGHKLVDQYLNKHIEFDNIKKAWNYHTVAIKKFGRYPHRNKILKRESTIEEIDFLKQP | 0.252
58 | HMIHSEEIQDHIFVKQLGEVFLRNHINYENIMKSWDDHTNVIKRFRRYPHRNKILNRESTIDEISFLKE | 0.176
59 | HMIIDTELMTRVMKFGFSQADASDLVAQHSDDLLRTAISRVEARAESKGMTPLETPAGYFRWTLQDLVRNP | -2.04
60 | HMIIIMKKSATNSEVRKVIERAEKEGLTVQVNQLEKQQVLGLVGDTRLIQDVAFLRYEGVENVERI | -2.37
61 | HMIILYTDEQQRIIDRLNEFIGEQPSQNEAAKLLGISAPILTNLRKGTYTGTVDKFMNKLAAYFNIKADLG | -1.3
62 | HMIIMVNLYQIWDKEVQGLDSVGAKPEQIEARRQAIAAHFESKARQAGMSSKDIYATLDNFDTYSRQKTS | -2.26
63 | HMIINFDAIRLTTELNKYNRHKAIPNSFFDGTFTILDVRDLYDSLSPKVQKIADTLIEQYNVDVKQ | -1.82
64 | HMIISMKKGATPQEISHVRKLIEELGYKVHESQGSERMVFGAIGDERSKHRLTSLEAQPGVEKVIPILA | 0.0278
65 | HMIISMKKTATKEQIAHVRELIEGMGYKAHMSVGAERVIFGAIGDERGKERLVSLEAQPGVEKVIPIL | -0.445
66 | HMIITLNIENLKRARENAGLTQTQAAQKIGVSDGTYKNYEQGKREPNGDKIVTIANAFGVTTDYLLGR | -0.475
67 | HMIIVMRKGATEAQVNDIVERVRAAGFGVHLSQGEERTIIGAIGGDRAVLADLNLEAAPGVERVTPIS | -0.176
68 | HMIIYGLNPVKDFINLFPNKISTLFISKNKLSDSEMKSVVNINTVYVSDAELKRITGTTKHQSLAAEID | -1.2
69 | HMIKILGSAYRHGLDDDDILRAWNYHIQEFFEGEDPEKIVRLGFDTHGRLLEIGGEIYPGGGEKIFHAM | -0.733
70 | HMIKITLPDGSVKEYKKGITPAEVAQSISEGLARNVISASYNGKTIETVTPLTTDGSLVLYTWDSPEGK | 0.0404
71 | HMIKLTVRQQEILDLIARSIDQTGFPPTRAEIAAELGFKSVNAAEEHLQALARKGVIEMVPGISRGIRLVQ | -1.48
72 | HMIKRNPLDEIEGVGPGRKKALLHAFGSAKGVSRASVVDLVKVEGVSQALAERIHDFFHPATR | -0.299
73 | HMIKSIRELAEVITLWKNQGKTILIAEHRLSYLMDLADRVLYMKDGQIENDFSMADFRKIPPDEISRMGLR | 0.103
74 | HMIKVAANESNRSDVLEIVRLFRVRVVDVNPESLTIEATGAEGKIDALLGLLEHYGVIELVRSGAVAVT | -1.86
75 | HMILESREKYLGEVLEVLVEEEKEGEYFGYSQNYLRVKFKLEEKNLINQLINIKIKSIEDDILIGEKEN | -3.46
76 | HMILKNVTSDLANKRLDKVASILFQTYSRTQIKKWILEGRVLVNGEISNPKDHVHENDEIEINPI | -1.9
